Substrate: CCCC(=O)OP(=O)(O)O
Assay: purified protein
Format: biochemical, Listeria monocytogenes
Conditions: 500 µM CoA, 100 mM Tris pH 7.5, 25 °C

B1: Ptb (phosphotransbutyrylase, LmPtb) (Listeria monocytogenes EGD-e) (protein)
chain: MTKSRFFSDVAETSSFVFAVAGADDEVVLETIRLALKQKLGKFLLFGKKEDKTLTANESVTWIQTDTAEAAAQGAILAVKNKEADILVKGFIPTATLMHHVLKKENGLRTDQLLSQIAIFDIPTYHKPLLITDCAMNVAPKTKEKIAITENALAVAHQIGITNPKIALLSAVEEVTAKMPSTLEAQEVVQHFGNQISVSGPLALDVAISKEAALHKGITDSSAGEADILIAPNIETGNALYKSLVYFAGAKVGSAVVGAKVPIVISSRNDSPENKLASFILTVRLVEK
- Km: 1040 µM
